Data set [1] deals with T1, Ecdysone receptor EcR (878 aa ORF, Table 2) (Drosophila melanogaster) (UniProt P34021).
T1 sequence: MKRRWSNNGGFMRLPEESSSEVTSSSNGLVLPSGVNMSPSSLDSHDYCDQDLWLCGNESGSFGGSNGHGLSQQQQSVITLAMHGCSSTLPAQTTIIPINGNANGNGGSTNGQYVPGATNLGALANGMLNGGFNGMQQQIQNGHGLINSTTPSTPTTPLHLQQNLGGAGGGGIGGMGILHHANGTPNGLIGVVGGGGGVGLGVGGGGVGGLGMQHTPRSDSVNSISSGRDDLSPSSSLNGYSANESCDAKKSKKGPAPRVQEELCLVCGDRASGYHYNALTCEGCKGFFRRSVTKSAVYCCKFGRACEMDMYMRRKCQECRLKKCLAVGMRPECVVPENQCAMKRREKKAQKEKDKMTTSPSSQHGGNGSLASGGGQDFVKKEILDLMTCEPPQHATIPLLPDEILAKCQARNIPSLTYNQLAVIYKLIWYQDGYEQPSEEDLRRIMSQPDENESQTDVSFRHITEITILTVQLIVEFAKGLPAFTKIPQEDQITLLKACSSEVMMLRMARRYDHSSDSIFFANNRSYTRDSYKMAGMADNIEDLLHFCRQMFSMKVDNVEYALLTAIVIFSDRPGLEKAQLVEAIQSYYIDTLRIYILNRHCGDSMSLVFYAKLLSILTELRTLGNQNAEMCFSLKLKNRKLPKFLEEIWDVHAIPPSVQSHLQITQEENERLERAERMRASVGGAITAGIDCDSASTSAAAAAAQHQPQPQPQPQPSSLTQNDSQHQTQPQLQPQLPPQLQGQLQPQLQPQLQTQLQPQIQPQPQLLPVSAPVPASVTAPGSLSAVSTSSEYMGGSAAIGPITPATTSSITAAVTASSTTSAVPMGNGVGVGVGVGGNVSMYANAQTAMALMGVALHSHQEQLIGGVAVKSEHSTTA
The data set is described as follows: pulldown. Particulars: anti-EcR immunoprecipitation on magnetic beads; 180 mM KCl EcR buffer pH 7.0, poly dI/dC, 25 C; no hormone stated; antibody dependent; scale: fold preference over average vector sequences.

Data set [2] concerns the target T2, Endogenous ecdysone receptor of Sch-2 cells (EcR) (Drosophila melanogaster) (UniProt P34021).
T2 sequence: T1 sequence
The data set is described as follows: cell_activity. To be noted: 20-OH ecdysone 2e-6 M, beta-galactosidase reporter.

In turn, “TCGAGAGACAAGGGTTCAATGCACTTGTCCAATG / TCGACATTGGACAAGTGCATTGAACCCTTGTCTC” yielded a binding signal in data set [1] of 1000.

With “TCGAGAGACAAGGGTTCAATGCACTTGTCCAATG / TCGACATTGGACAAGTGCATTGAACCCTTGTCTC [pEcRE/Adh/betagal reporter, 7 x EcRE upstream of Adh -34+53]”, the activity (fold induction by ecdysone) in data set [2] is 2000.

The values are drawn from patent US6245531.
